Substitutions are numbered along the chain they refer to.
B1: ACI-3108C10_3112H1 (bispecific antibody, V domains shown)
VH 1: ELQLVESGGGLVRPGGSLKLSCATSGFTFRNYAMSWVRQTPAKRLEWVATISDGGTYTFYSDNVKGRFTISRDNVKNTLYLQMSHLKSEDTAMYYCSRAGSGHWGQGTTLTVSS
VL 1: not shown
VH 2: EVQLQQSGPELVKPGASVKISCKASGYTFSDYFMNWVKQSHGKSLEWIGDINPNNGGSSYIQKFKGKATLTVDKSSTTAYMELRSLTSEDSAVYYCARGSNYAMDSWGQGTSVTVSS
VL 2: DIVMSQSPSSLAVSAGEKVTMSCKSSQSLLNSRTRKNYLAWYQQKPGQSPKLLIYWASTRESGVPDRFTGSGSGTDFTLTISSVQAEDLAVYYCKQSYDLWTFGGGTKLEIK
notes: biparatopic; Arm A ACI-7079-3108C10-Ab2, Arm B ACI-7079-3112H1-Ab1; engineered constant domains not specified
B2: ACI-3112H1_3108C10 (bispecific antibody, V domains shown)
VH 1: B1 VH 2
VL 1: B1 VL 2
VH 2: B1 VH 1
VL 2: not shown
notes: biparatopic; Arm A ACI-7079-3112H1-Ab1, Arm B ACI-7079-3108C10-Ab2; engineered constant domains not specified
B3: ACI-4301H3_3108C10 (bispecific antibody, V domains shown)
VH 1: B1 VH 2 with S30A, S58T, S59T, I61N, T77N, S100R, S106Y
VL 1: B1 VL 2 with W56S, S73F
VH 2: B1 VH 1
VL 2: not shown
notes: biparatopic; Arm A ACI-7088-4301H3-Ab2, Arm B ACI-7079-3108C10-Ab2; engineered constant domains not specified
B4: ACI-7079-3112H1-Ab1 (antibody, V domains shown)
VH: B1 VH 2
VL: B1 VL 2
notes: mouse hybridoma mAb; VH/VL only; also called 3112H1F3
B5: ACI-8033-6402E2-Ab2 (antibody, V domains shown)
VH: EVQLQHSGPDLVKPGASVKISCKASGYTFTDYYMNWVKQSHGKSLEWIGDINPNNGDTTYNQKFKGRATLTVDKSSSTAYMELRSLTSEDSAVYYCARSGSNYYAMDSWGQGTSVTVSS
VL: B1 VL 2 with K18R, L30F, T78S, T80N
notes: mouse hybridoma mAb; VH/VL only; also called 6402E2E4
B6: ACI-8032-6301G2-Ab2 (antibody, V domains shown)
VH: EVQLQQSGPELVKPGASVKISCKASGYTFTDYFMNWVKQSHGKSLEWIGDINPNIGVTNYNPKFKDRATLTVDKSSSSAYMELRSLTSEDSTVYYCARGGGSNPLYYAMDYWGQGTSVTVSS
VL: B1 VL 2 with Y93F
notes: mouse hybridoma mAb; VH/VL only; also called 6301G2D11
B7: ACI-8033-6403A4-Ab1 (antibody, V domains shown)
VH: EVQLVESGGGLVQPKGSLKLSCAASGFSFNTYAMNWVRQAPGKGLEWVARIRSKSNNYTTYYADSVKDRFTISRDDSESMLYLQMNNLKTEDTAMYYCVRTMDYWGQGTSVTVSS
VL: QIVLTQSPAIMSASLGEEITLTCSASSSISYMHWYQQKSGTSPKLLIHSTFNLASGVPSRFSGSGSGTFYSLTISSVEAEDAADYYCHQWSSYYTFGGGTKLEIK
notes: mouse hybridoma mAb; VH/VL only; also called 6403A4A3
B8: ACI-8031-6207G10-Ab1 (antibody, V domains shown)
VH: QVQLQQSGAELVKPGASVKISCKASGYAFSSYWMNWVKQRPGKGLEWIGQIYPGDGDTNYNGKFKGKATLTADRSSSTAYMQLSSLTSEDSAVYFCAITHYDYWGQGTTLTVSS
VL: DILLTQSPAILSVSPGDRVSFSCRASQSIGTRIHWYQQRTNGSPRLLIKYASESISGTPSRFSGSGSGTDFTLSINSVESEDIADYYCQQSNSWPLTFGAGTKLELK
notes: mouse hybridoma mAb; VH/VL only; also called 6207G10E6
B9: ACI-8030-6106F5-Ab1 (antibody, V domains shown)
VH: QVQLQQSGPELVKPGASVKISCKASGYSFTTYYIHWMKQRPGQGPEWIGWIYPGRGYTKYNEKFKDKAAQTADTSSNTAYMQLSSLRSEDSAVYYCARDWETGFPYWGQGTLVTVSA
VL: DIVLTQSPASLAVSLGQRATISCKASQSVDYGGDSWLNWYQQKPGQPPKLLIYAASNLDSGIPARFGGSGSGTDFTLNIHPVEEEDAATYYCQQSGEDPFTFGGGTNLEIK
notes: mouse hybridoma mAb; VH/VL only; also called 6106F5B10
B10: ACI-8032-6304F3-Ab1 (antibody, V domains shown)
VH: QVQLQQSGAELARPGASVKLSCKASGYTFTSYGVSWVKQRTGQGLEWIGEIYPRSGNTYYNEKFKGKATLTADKSSSTAYMELRSLTSEDSAVYFCASESYYGDYDWYFDVWGTGTTVTVSS
VL: DVLMTQIPLSLPVSPGDQVSISCRSSQSIVHSNGNTYLEWYLQKPGQSPKPLIYKVSNRFSGVPDRFSGSGSGTDFTLKISRVEAEDLGVYYCFQGSHVPPTFGGGTKLEIK
notes: mouse hybridoma mAb; VH/VL only; also called 6304F3D12
B11: ACI-8032-6301C8-Ab2 (antibody, V domains shown)
VH: B10 VH with A16T, S31T, V34I, S75P, D106A
VL: B10 VL with P15L, V19A, Y41H, P51L, K55E, K79N
notes: mouse hybridoma mAb; VH/VL only; also called 6301C8G12
B12: ACI-8032-6307F1-Ab2 (antibody, V domains shown)
VH: B10 VH with V34M, A72S, A79S, D106A
VL: B10 VL with I7T, P15L, V19A, I29V, N35I, P51L, D75Y
notes: mouse hybridoma mAb; VH/VL only; also called 6307F1H10
B13: ACI-8032-6314A3-Ab3 (antibody, V domains shown)
VH: B10 VH
VL: B10 VL with S20F
notes: mouse hybridoma mAb; VH/VL only; also called 6314A3E4
B14: ACI-8032-6301A10-Ab2 (antibody, V domains shown)
VH: B10 VH with V34I
VL: B10 VL with I7T, P15L, V19A, Q27H, V30E, Y41C, S48P, P51F, K79R
notes: mouse hybridoma mAb; VH/VL only; also called 6301A10E12

Molecular target: T1, alpha-synuclein fibrils (UniProt P37840 1-140)
Assay: SPR, captured bAb
Procedure: (§1) Any non-covalently bound antibodies were removed by three successive regenerations of 10 mM Glycine pH 1.7 (GE Healthcare, 28-9950-84). Immobilization levels were evaluated following ethanolamine capping (Bound) and finally following regeneration (Final). Non-covalent immobilization of alpha-synuclein biparatopic antibodies on flow cell 2 of channels 1-8 was performed at a final concentration of 5 μg/mL, diluted in 10 mM sodium acetate pH 5.5 (GE Healthcare, BR-1003-52). Non-covalent immobilization of an isotype control antibody on flow cell 1 of channels 1-8 was performed at a final concentration of 5 μg/mL, diluted in 10 mM sodium acetate pH 5.5 (GE Healthcare, BR-1003-52).
(§2) Binding affinity of alpha-synuclein biparatopic antibodies to monomeric or fibrillar alpha-synuclein species was performed using a single-cycle kinetics method. The instrument was primed with 1×HBS-P+ buffer (10× stock from GE Healthcare, BR-1003-52 diluted in Milli-Q water). Injections of monomeric alpha-synuclein (Boston Biochem, SP-485), increasing in concentration from 0.62-50 nM prepared from serial 2-fold dilutions, were performed with contact times of 300 sec/injection at a flow rate of 30 μL/min. A dissociation phase of 900 sec followed the final 50 nM injection. Regeneration of the sensor to the goat anti-human antibody layer was achieved using 3 regenerations of 10 mM Glycine pH 1.7. […] Regeneration of the sensor to the goat anti-mouse antibody layer was achieved using 3 regenerations of 10 mM Glycine pH 1.7. Results obtained from single-cycle kinetics were evaluated by Biacore 8K evaluation software with 1:1 binding homogenous Langmuir model with a preceeding buffer injection as a blank subtraction. The following kinetic parameters were obtained: on-rate (ka), off-rate (kd), affinity constant (KD, ratio of kd by ka), maximum response (Rmax), and goodness of fit (Chi2).
(§3) Kinetic constants were determined from 1:1 homogenous binding models for all cases.

koff | kon | Binder
0.000315 s⁻¹ | 13500 M⁻¹ s⁻¹ | B1
0.000472 s⁻¹ | 7650 M⁻¹ s⁻¹ | B2
0.000418 s⁻¹ | 8220 M⁻¹ s⁻¹ | B3

Molecular target: T2, monomeric alpha-synuclein (UniProt P37840 1-140)
Assay: SPR, captured bAb
Procedure: as §1, §2, §3

koff | kon | Binder
0.023 s⁻¹ | 2280 M⁻¹ s⁻¹ | B1
0.0162 s⁻¹ | 5540 M⁻¹ s⁻¹ | B2
0.0361 s⁻¹ | 1.04e+06 M⁻¹ s⁻¹ | B3

Molecular target: T1, alpha-synuclein fibrils
Assay: SPR, captured mAb
Procedure: (§4) Non-covalent immobilization of alpha-synuclein antibodies was performed using a target immobilization method of 2000 response units (RU). Antibodies were diluted in 10 mM sodium acetate pH 5.5 (GE Healthcare, BR-1003-52) to a final concentration of 5 μg/mL.
(§5) Binding affinity of alpha-synuclein antibodies to monomeric or fibrillar alpha-synuclein species was performed using a single-cycle kinetics method. The instrument was primed with 1×HBS-P+ buffer (10× stock from GE Healthcare, BR-1003-52 diluted in Milli-Q water). Injections of monomeric alpha-synuclein (aSyn) (Boston Biochem, SP-485), increasing in concentration from 0.62-50 nM prepared from serial 2-fold dilutions, were performed with contact times of 300 sec/injection at a flow rate of 30 μL/min. A dissociation phase of 900 sec followed the final 50 nM injection. Regeneration of the sensor to the goat anti-mouse antibody layer was achieved using 3 regenerations of 10 mM Glycine pH 1.7. […] Regeneration of the sensor to the goat anti-mouse antibody layer was achieved using 3 regenerations of 10 mM Glycine pH 1.7. Results obtained from single-cycle kinetics were evaluated by Biacore T200 evaluation software with 1:1 binding homogenous Langmuir model (with a global Rmax) with Cycle 5 as a blank subtraction. The following kinetic parameters were obtained: on-rate (ka), off-rate (kd), affinity constant (KD, ratio of kd by ka), maximum response (Rmax), and goodness of fit (Chi2).
(§6) Non-covalent capture of the alpha-synuclein antibodies was performed in three separate runs.

Kd | koff | kon | Binder
19.3 nM | 0.000216 s⁻¹ | 11200 M⁻¹ s⁻¹ | B4
134 nM | 0.000987 s⁻¹ | 7350 M⁻¹ s⁻¹ | B5
3350 nM | 0.000353 s⁻¹ | – | B6
37.9 nM | 0.000599 s⁻¹ | 15800 M⁻¹ s⁻¹ | B7
13.3 nM | 0.00015 s⁻¹ | 11300 M⁻¹ s⁻¹ | B8
16.7 nM | 0.000232 s⁻¹ | 13900 M⁻¹ s⁻¹ | B9
40.6 nM | 0.000527 s⁻¹ | 13000 M⁻¹ s⁻¹ | B10
42.8 nM | 0.00355 s⁻¹ | 83000 M⁻¹ s⁻¹ | B11
26 nM | 0.000691 s⁻¹ | 26500 M⁻¹ s⁻¹ | B12
41.5 nM | 0.000325 s⁻¹ | 7830 M⁻¹ s⁻¹ | B13
2.69 nM | 0.000193 s⁻¹ | 71800 M⁻¹ s⁻¹ | B14

Molecular target: T2, monomeric alpha-synuclein
Assay: SPR, captured mAb
Procedure: as §4, §5, §6

Kd | koff | kon | Binder
10.5 nM | 0.00225 s⁻¹ | 214000 M⁻¹ s⁻¹ | B4
3.26 nM | 0.000651 s⁻¹ | 200000 M⁻¹ s⁻¹ | B5
606 nM | 0.000237 s⁻¹ | 390 M⁻¹ s⁻¹ | B6
96.4 nM | 0.044 s⁻¹ | 457000 M⁻¹ s⁻¹ | B7
3.67 nM | 0.000314 s⁻¹ | 85300 M⁻¹ s⁻¹ | B8
1.95 nM | 0.00023 s⁻¹ | 118000 M⁻¹ s⁻¹ | B9
4.75 nM | 0.016 s⁻¹ | 3.37e+06 M⁻¹ s⁻¹ | B10
8.76 nM | 0.00329 s⁻¹ | 376000 M⁻¹ s⁻¹ | B11
19 nM | 0.0248 s⁻¹ | 1.3e+06 M⁻¹ s⁻¹ | B12
16.7 nM | 0.0382 s⁻¹ | 2.28e+06 M⁻¹ s⁻¹ | B13
11.5 nM | 0.00517 s⁻¹ | 450000 M⁻¹ s⁻¹ | B14

Molecular target: T1, alpha-synuclein fibrils
Assay: SPR, captured bAb; head says nM, kd/ka gives M
Procedure: as §1, §2, §3

Kd | Binder
23.4 nM | B1
61.7 nM | B2
50.8 nM | B3

Molecular target: T2, monomeric alpha-synuclein
Assay: SPR, captured bAb; head says nM, kd/ka gives M
Procedure: as §1, §2, §3

Kd | Binder
10100 nM | B1
2920 nM | B2
34.8 nM | B3

Source: patent US20250340623A1 (AC IMMUNE, published 2025)
